Results reported in patent publication US20190314260A1, “ENGINEERED TREATMENTS FOR HAIR REPAIR AND LONG-LASTING COLOR RETENTION” (Massachusetts Institute of Technology, priority 2018, published 2019).
No end group written: not given here.

Experiments:
[1] = tested on: exposed keratin proteins on damaged hair; assay: keratin binding domain absorption test (FITC-conjugated peptides, fluorescence microscopy), damaged hair; conditions: FITC conjugate, 37° C. for 1 hr, hair washed 10 times
Source text: (§1) The peptide-FITC conjugate is not seen on healthy hair because the hydrophobic surface of healthy hair cuticles prevents binding of the peptide. However, peptide-FITC conjugates are shown to be absorbed in damaged hair because the peptide bonds to exposed keratin proteins on damaged hair shafts. […] This is due to binding of the C-terminal cysteine present on Peptide 2 to the exposed keratin protein on the damaged hair.
To provide damaged hair for treatment using the exemplary engineered keratin-binding construct, hair was incubated with 10% H2O2(v/v) in 0.1M Na2CO3/NaHCO3 (pH 9.0) buffer at 50° C. for 1 hr, and then the hairs were washed in deionized (DI) water.
(§2) Samples of healthy and damaged hair were incubated with the FITC-conjugated peptides at 37° C. for 1 hr, followed by washing the hair 10 times (FIG. 5). The results are provided in the images obtained by fluorescent microscopy shown in the right part of FIG. 5.

[2] = keratin binding domain absorption test (FITC-conjugated peptides, fluorescence microscopy), healthy hair; conditions: FITC conjugate, 37° C. for 1 hr, hair washed 10 times
Protocol: as §1, §2

NIH3T3 fibroblast cell = assay: MTT assay, NIH3T3 fibroblast cell viability; type: cell-based; conditions: in the presence of the protein
[3] = solubility test in oil-based solvents; type: physicochemical; conditions: 2.5 mg protein/10 mL solvent
Protocol: Solubility tests were performed by adding keratin-binding protein to 7 different solvents at concentrations of 2.5 mg protein/10 mL solvent. […] KBP was soluble in polysorbate 40 (Tween® 40) and Solubilisant CLR, with only a few visible particles present in solution.

IL-6 in fibroblast cells = assay: IL-6 ELISA (immune response); type: cell-based; conditions: LPS positive control
Protocol: (§3) Keratin-binding protein (B22) was tested for immune response by performing an IL-6 ELISA and IFN-γ ELISA. The effects of KBP and KBP-lipid conjugate on the immune response was assessed by measuring levels of IL-6 and IFN-γ in fibroblast cells. No protein was added to the cells as a negative control. Lipopolysaccharides (LPS) were used as a positive control.

damaged hair = assay: affinity of keratin binding protein tagged with a fluorescent dye for damaged and undamaged hair (fluorescence microscopy)
Protocol: Keratin binding protein tagged with a fluorescent dye was incubated with damaged and undamaged (virgin) hair, and observed by fluorescence microscopy. The results are depicted in FIG. 8, with microscopy images shown on the left and intensity of corrected fluorescence shown on the right. Corrected fluorescence=Integrated Density−(selected area X Mean fluorescence of background).
The damaged hair incubated with keratin binding protein tagged with a fluorescent dye for varying amounts of time was then subjected to washing with shampoo.

[4] = tested on: IFN-γ in fibroblast cells; assay: IFN-γ ELISA (immune response); type: cell-based; conditions: LPS positive control
Protocol: as §3

For “Peptide 2: same keratin binding domain as peptide 1 plus a C-terminal cysteine, AKTKKVELFPKC; SEQ ID NO: 5”, the “affinity to damaged hair compared to Peptide 1” value [1] was “higher affinity” and the “binding affinity to the damaged hair” value [1] was “strong binding affinity”.

With “peptide1-FITC: Peptide1 (AKTKKVELFPK) conjugated to fluorescein isothiocyanate (FITC) (also: FITC conjugate, site not given here)” the “binding to healthy hair” value [2] was “Neither peptide1-FITC nor peptide1-FITC is shown as binding”.

B1: KBP: engineered keratin-binding protein without tyrosine residues; keratin-binding domain SEQ ID NO: 1 repeated three times, expressed in E. coli (protein)
chain: MAKTHHHHHHQGQVQHLQAAFSQYKKVELFPKGGQGQVQHLQAAFSQYKKVELFPKGGQGQVQHLQAAFSQYKKVELFPKGGYYYYC
In the case of B1, the “NIH3T3 fibroblast cell viability” value (NIH3T3 fibroblast cell) is reported as “increased”, the “solubility in butylene glycol” value [3] is reported as “not soluble” and the solubility in glycerin [3] is reported as “not soluble”. The “solubility in hexylene glycol” value [3] was “not soluble”, the “solubility in polysorbate 20 (Tween® 20)” value [3] was “not soluble” and the “solubility in Solubilisant CLR” value ([3]; only a few visible particles) was “soluble”. The “solubility in polysorbate 40 (Tween® 40)” value ([3]; only a few visible particles) was “soluble”, the “production of IL-6” value (IL-6 in fibroblast cells) was “No production” and the “binding to damaged hair versus healthy hair” value (damaged hair) was “binds more readily to damaged hair”. The “production of IFN-γ” value [4] was “No production”.

B2: KBPY: keratin-binding protein with tyrosine residues, SEQ ID NO: 2: MAKT-6His-three keratin-binding domain repeats-YYYYC (protein)
chain: B1 chain
With B2 the “NIH3T3 fibroblast cell viability” value (NIH3T3 fibroblast cell) was “increased”.
